From paper PMC7367873, “Dissecting the sequence determinants for dephosphorylation by the catalytic subunits of phosphatases PP1 and PP2A” (Nature Communications, 2020)
Values belong to the molecule of their own block, whether it stands above or below them.

Experiments:
[1] = test system: GFP-14-3-3β and its binding proteins; test: GFP-14-3-3β co-IP with LC-MS/MS label-free quantification, untreated versus PP1c-treated; parameters: species or system human; details: PP1 vs untreated; label-free quantification
Method: (§1) HeLa Kyoto cells expressing transiently transfected pEGFP(C1)-14-3-3β or pEGFP(C1) control plasmid, were incubated with 20 nM Calyculin A (# 9902 S, Cell Signaling Technology) for 12 min. Cells were washed twice on ice with cold PBS and after addition of 500 µL lysis buffer (100 mM NaCl, 10 mM Tris, 0.1% IGEPAL, 1 mM EDTA, 1 mM EGTA, 20 nM Calyculin A, 1x cOmplete Mini protease inhibitor cocktail (Sigma), 1 mM DTT, 1 mM MnCl2) cells were scraped from plates, lysed by 10 pushes through an injection needle (21 G, BD) and the insoluble fraction was pelleted by centrifugation (10 min, 10^4 rcf, 4 °C). Supernatants were then subjected to incubation with 1 µM recombinant phosphatase or buffer for 1 h at 30 °C. Next, we subjected samples to immunoprecipitation using α-GFP nanobodies covalently coupled to agarose beads (2 h, 4 °C, obtained from the EMBL PEPcore Core Facility). Beads were then washed three times with lysis buffer and samples were eluted in 1x LDS sample buffer (Thermo Fisher Scientific) by heating to 70 °C for 10 min.
(§2) The samples were then reduced with 25 mM dithiothreitol (10 min at 70 °C) and alkylated with 55 mM chloroacetamide (room temperature, 30 min, in the dark). Proteins were run on a precast 4–12% NuPAGE gel (ThermoFisher Scientific) for about 1 cm to concentrate the sample prior to in-gel tryptic digestion, which was performed according to the standard procedures. The peptides obtained were dried to completeness and resuspended in 12 µL of buffer A (0.1% FA), and 5 µL of sample were injected per MS measurement. The experiment was carried out in three independent replicates.
(§3) The samples were analyzed by LC-MS/MS on a Dionex Ultimate 3000 nano-HPLC coupled online to a Fusion Lumos Tribrid mass spectrometer (Thermo Fisher Scientific). Peptides were delivered to a trap column (75 µm × 2 cm, packed in-house with 5 µm C18 resin; Reprosil PUR AQ, Dr. Maisch) and washed using 0.1% FA at a flow rate of 5 µL/min for 10 min. Subsequently, peptides were transferred to an analytical column (75 µm × 45 cm, packed in-house with 3 µm C18 resin; Reprosil Gold) applying a flow rate of 300 nL/min and separated using a 60 min linear gradient from 4% to 32% LC solvent B (0.1% FA, 5% DMSO in ACN) in LC solvent A (0.1% FA in 5% DMSO). The eluate from the analytical column was sprayed via a stainless steel emitter (Thermo Fisher Scientific) at a source voltage of 2.1 kV into the mass spectrometer. The transfer capillary was heated to 275 °C. The Fusion Lumos was operated in positive ionization mode and data-dependent acquisition (DDA), automatically switching between MS1 and MS2 spectrum acquisition. Full scan MS1 spectra were recorded in the Orbitrap from 360 to 1300 m/z at a resolution of 60k (automatic gain control (AGC) target value of 4e5 charges, maximum injection time (maxIT) of 50 ms). Up to 20 peptide precursors were isolated (isolation window, 1.7 m/z; maximum injection time, 25 ms; and AGC value, 1e5), fragmented by high-energy collision-induced dissociation (HCD) using 30% normalized collision energy (NCE), and analyzed at a resolution of 15k in the Orbitrap. Precursor ions that were singly charged, unassigned, or with charge states >6+ were excluded. The dynamic exclusion duration of fragmented precursor ions was 20 s.
(§4) Peptide and protein identification and LFQ were performed using MaxQuant software (version 1.6.1.0)[64] by searching the data against all canonical protein sequences as annotated in the Swissprot reference database (human proteins only, 20193 entries, downloaded 22 March 2016, internally annotated with PFAM domains) using the embedded search engine Andromeda[65]. The MaxQuant search was performed using two variable modifications; oxidation of methionine and N-terminal protein acetylation. Carbamidomethylation on cysteines was specified as a fixed modification. Trypsin (Trypsin/P) was specified as the proteolytic enzyme with up to two allowed missed cleavage sites.

GFP-14-3-3β = GFP-14-3-3β co-IP with LC-MS/MS, untreated GFP-14-3-3β versus GFP control (14-3-3 interactome); format: binding, human; details: untreated vs GFP; label-free quantification
Method: as §1, §2, §3, §4

B2: FAM83B (protein, UniProt Q5T0W9 1-1011, looked up)
Protein FAM83B: METSSMLSSLNDECKSDNYIEPHYKEWYRVAIDILIEHGLEAYQEFLVQERVSDFLAEEEINYILKNVQKVAQSTAHGTDDSCDDTLSSGTYWPVESDVEAPNLDLGWPYVMPGLLGGTHIDLLFHPPRAHLLTIKETIRKMIKEARKVIALVMDIFTDVDIFKEIVEASTRGVSVYILLDESNFNHFLNMTEKQGCSVQRLRNIRVRTVKGQDYLSKTGAKFHGKMEQKFLLVDCQKVMYGSYSYMWSFEKAHLSMVQIITGQLVESFDEEFRTLYARSCVPSSFAQEESARVKHGKALWENGTYQHSVSSLASVSSQRNLFGRQDKIHKLDSSYFKNRGIYTLNEHDKYNIRSHGYKPHFVPNFNGPNAIRQFQPNQINENWKRHSYAGEQPETVPYLLLNRALNRTNNPPGNWKKPSDSLSVASSSREGYVSHHNTPAQSFANRLAQRKTTNLADRNSNVRRSFNGTDNHIRFLQQRMPTLEHTTKSFLRNWRIESYLNDHSEATPDSNGSALGDRFEGYDNPENLKANALYTHSRLRSSLVFKPTLPEQKEVNSCTTGSSNSTIIGSQGSETPKEVPDTPTNVQHLTDKPLPESIPKLPLQSEAPKMHTLQVPENHSVALNQTTNGHTESNNYIYKTLGVNKQTENLKNQQTENLLKRRSFPLFDNSKANLDPGNSKHYVYSTLTRNRVRQPEKPKEDLLKSSKSMHNVTHNLEEDEEEVTKRNSPSGTTTKSVSIAALLDVNKEESNKELASKKEVKGSPSFLKKGSQKLRSLLSLTPDKKENLSKNKAPAFYRLCSSSDTLVSEGEENQKPKKSDTKVDSSPRRKHSSSSNSQGSIHKSKEDVTVSPSQEINAPPDENKRTPSPGPVESKFLERAGDASAPRFNTEQIQYRDSREINAVVTPERRPTSSPRPTSSELLRSHSTDRRVYSRFEPFCKIESSIQPTSNMPNTSINRPEIKSATMGNSYGRSSPLLNYNTGVYRSYQPNENKFRGFMQKFGNFIHKNK
Difference (log2), PP1 vs untreated [1]: 1.224 log2
Difference (log2), untreated vs GFP (GFP-14-3-3β): -0.8224 log2

B5: ERLIN1 (protein, UniProt O75477 1-348, looked up)
Erlin-1: MNMTQARVLVAAVVGLVAVLLYASIHKIEEGHLAVYYRGGALLTSPSGPGYHIMLPFITTFRSVQTTLQTDEVKNVPCGTSGGVMIYIDRIEVVNMLAPYAVFDIVRNYTADYDKTLIFNKIHHELNQFCSAHTLQEVYIELFDQIDENLKQALQKDLNLMAPGLTIQAVRVTKPKIPEAIRRNFELMEAEKTKLLIAAQKQKVVEKEAETERKKAVIEAEKIAQVAKIRFQQKVMEKETEKRISEIEDAAFLAREKAKADAEYYAAHKYATSNKHKLTPEYLELKKYQAIASNSKIYFGSNIPNMFVDSSCALKYSDIRTGRESSLPSKEALEPSGENVIQNKESTG
Difference (log2), PP1 vs untreated [1]: 1.221 log2
Difference (log2), untreated vs GFP (GFP-14-3-3β): 0.5977 log2

B6: NCBP1 (protein, UniProt Q09161 1-790, looked up)
Nuclear cap-binding protein …: MSRRRHSDENDGGQPHKRRKTSDANETEDHLESLICKVGEKSACSLESNLEGLAGVLEADLPNYKSKILRLLCTVARLLPEKLTIYTTLVGLLNARNYNFGGEFVEAMIRQLKESLKANNYNEAVYLVRFLSDLVNCHVIAAPSMVAMFENFVSVTQEEDVPQVRRDWYVYAFLSSLPWVGKELYEKKDAEMDRIFANTESYLKRRQKTHVPMLQVWTADKPHPQEEYLDCLWAQIQKLKKDRWQERHILRPYLAFDSILCEALQHNLPPFTPPPHTEDSVYPMPRVIFRMFDYTDDPEGPVMPGSHSVERFVIEENLHCIIKSHWKERKTCAAQLVSYPGKNKIPLNYHIVEVIFAELFQLPAPPHIDVMYTTLLIELCKLQPGSLPQVLAQATEMLYMRLDTMNTTCVDRFINWFSHHLSNFQFRWSWEDWSDCLSQDPESPKPKFVREVLEKCMRLSYHQRILDIVPPTFSALCPANPTCIYKYGDESSNSLPGHSVALCLAVAFKSKATNDEIFSILKDVPNPNQDDDDDEGFSFNPLKIEVFVQTLLHLAAKSFSHSFSALAKFHEVFKTLAESDEGKLHVLRVMFEVWRNHPQMIAVLVDKMIRTQIVDCAAVANWIFSSELSRDFTRLFVWEILHSTIRKMNKHVLKIQKELEEAKEKLARQHKRRSDDDDRSSDRKDGVLEEQIERLQEKVESAQSEQKNLFLVIFQRFIMILTEHLVRCETDGTSVLTPWYKNCIERLQQIFLQHHQIIQQYMVTLENLLFTAELDPHILAVFQQFCALQA
Difference (log2), PP1 vs untreated [1]: 1.197 log2
Difference (log2), untreated vs GFP (GFP-14-3-3β): -0.001907 log2

Continued, in another order:

Difference (log2), PP1 vs untreated [1]: 1.256 log2
B1: PFKL (protein, UniProt P17858 2-780, looked up)
ATP-dependent …: AAVDLEKLRASGAGKAIGVLTSGGDAQGMNAAVRAVTRMGIYVGAKVFLIYEGYEGLVEGGENIKQANWLSVSNIIQLGGTIIGSARCKAFTTREGRRAAAYNLVQHGITNLCVIGGDGSLTGANIFRSEWGSLLEELVAEGKISETTARTYSHLNIAGLVGSIDNDFCGTDMTIGTDSALHRIMEVIDAITTTAQSHQRTFVLEVMGRHCGYLALVSALASGADWLFIPEAPPEDGWENFMCERLGETRSRGSRLNIIIIAEGAIDRNGKPISSSYVKDLVVQRLGFDTRVTVLGHVQRGGTPSAFDRILSSKMGMEAVMALLEATPDTPACVVTLSGNQSVRLPLMECVQMTKEVQKAMDDKRFDEATQLRGGSFENNWNIYKLLAHQKPPKEKSNFSLAILNVGAPAAGMNAAVRSAVRTGISHGHTVYVVHDGFEGLAKGQVQEVGWHDVAGWLGRGGSMLGTKRTLPKGQLESIVENIRIYGIHALLVVGGFEAYEGVLQLVEARGRYEELCIVMCVIPATISNNVPGTDFSLGSDTAVNAAMESCDRIKQSASGTKRRVFIVETMGGYCGYLATVTGIAVGADAAYVFEDPFNIHDLKVNVEHMTEKMKTDIQRGLVLRNEKCHDYYTTEFLYNLYSSEGKGVFDCRTNVLGHLQQGGAPTPFDRNYGTKLGVKAMLWLSEKLREVYRKGRVFANAPDSACVIGLKKKAVAFSPVTELKKDTDFEHRMPREQWWLSLRLMLKMLAQYRISMAAYVSGELEHVTRRTLSMDKGF
Difference (log2), untreated vs GFP (GFP-14-3-3β): -0.3869 log2

Difference (log2), PP1 vs untreated [1]: 1.257 log2
B3: PRSS56 (protein, UniProt P0CW18 20-603, looked up)
Serine protease 56: HPLYTRLPPSALQVLSAQGTQALQAAQRSAQWAINRVAMEIQHRSHECRGSGRPRPQALLQDPPEPGPCGERRPSTANVTRAHGRIVGGSAAPPGAWPWLVRLQLGGQPLCGGVLVAASWVLTAAHCFVGAPNELLWTVTLAEGSRGEQAEEVPVNRILPHPKFDPRTFHNDLALVQLWTPVSPGGSARPVCLPQEPQEPPAGTACAIAGWGALFEDGPEAEAVREARVPLLSTDTCRRALGPGLRPSTMLCAGYLAGGVDSCQGDSGGPLTCSEPGPRPREVLFGVTSWGDGCGEPGKPGVYTRVAVFKDWLQEQMSASSSREPSCRELLAWDPPQELQADAARLCAFYARLCPGSQGACARLAHQQCLQRRRRCELRSLAHTLLGLLRNAQELLGPRPGLRRLAPALALPAPALRESPLHPARELRLHSGSRAAGTRFPKRRPEPRGEANGCPGLEPLRQKLAALQGAHAWILQVPSEHLAMNFHEVLADLGSKTLTGLFRAWVRAGLGGRHVAFSGLVGLEPATLARSLPRLLVQALQAFRVAALAEGEPEGPWMDVGQGPGLERKGHHPLNPQVPPARQP
Difference (log2), untreated vs GFP (GFP-14-3-3β): -0.4107 log2

Difference (log2), PP1 vs untreated [1]: 1.211 log2
B4: RBM3 (protein, UniProt P98179 1-157, looked up)
RNA-binding protein 3: MSSEEGKLFVGGLNFNTDEQALEDHFSSFGPISEVVVVKDRETQRSRGFGFITFTNPEHASVAMRAMNGESLDGRQIRVDHAGKSARGTRGGGFGAHGRGRSYSRGGGDQGYGSGRYYDSRPGGYGYGYGRSRDYNGRNQGGYDRYSGGNYRDNYDN
Difference (log2), untreated vs GFP (GFP-14-3-3β): 0.8571 log2
